Columns and labels:
[1] = molecular target: human VISTA, native (on anti-CD3-activated human T cells and PBMCs) (human (homo sapiens))
[2] = molecular target: human VISTA, native (on anti-CD3-activated human T cells and PBMCs) (human (homo sapiens)); remark: listed apart in the source

ED50 of inhibition of MIP-1 alpha secretion, anti-CD3-activated human PBMCs (Quantikine ELISA) [1]: 0.5 µg/mL
ED50 of inhibition of Rantes secretion, anti-CD3-activated human PBMCs (Quantikine ELISA) [1]: 0.5 µg/mL
concentration at which inhibition of CXCL11 secretion occurred, anti-CD3-activated human PBMCs (Quantikine ELISA) [1]: 2 µg/mL
concentration at which inhibition of IL-17 secretion occurred, anti-CD3-activated human PBMCs (Quantikine ELISA) [1]: 10 µg/mL
division of CFSE-labeled human CD3+ T cells with plate-bound anti-CD3 and rhVSIG-3 10 µg/mL, flow cytometry (% CD3+ T cells dividing (72 hours)) [2]: < 25
B1: Recombinant human VSIG3 Fc Chimera (Fc fusion)
chain: LEVSESPGSIQVARGQTAVLPCTFTTSAALINLNVIWMVTPLSNANQPEQVILYQGGQMFDGAPRFHGRVGFTGTMPATNVSIFINNTQLSDTGTYQCLVNNLPDIGGRNIGVTGLTVLVPPSAPHCQIQGSQDIGSDVILLCSSEEGIPRPTYLWEKLDNTLKLPPTATQDQVQGTVTIRNISALSSGLYQCVASNAIGTSTCLLDLQVISPQPRNIGLIAG

Reference: patent US11649285B2
